# Laboratory results: the supplement of paper PMC10126150
# ± gives the standard deviation of the averaged measurements.
# System: ATP
# Test: switch fluorescence ratio, 500 uM ATP over buffer (Cy3 cluster intensity, sum of 5 cycles each) (fold (ratio)); higher = stronger signal-on switching upon ATP binding; sequences stand for … in TCGTCGGCAGCGTCAGATGTGTATAAGAGACAGTTTTTTTTTTTTTTTTTTTTTTTTT…TC
# Conditions: aptamer strand: ATP DNA aptamer (quencher-CACCTGGGGGAGTATTGCGGAGGAAGG + anchor), 100 nM annealed; ATP concentration: 500 uM
# Method in brief: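 Imaging in selection buffer was followed by imaging after 15 min with 500 uM ATP at 22 °C, for Cy3-labelled switching-strand clusters annealed to 100 nM quencher-labelled ATP aptamer on a modified Illumina MiSeq flow-cell. Five of these buffer/ATP cycles ran, separated by NaOH stripping and re-annealing. The fluorescence ratio per cluster is summed target-cycle over summed buffer-cycle Cy3 intensity, averaged per switch-domain sequence; clusters outside 100-1000 RFU were removed.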
# 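Also: ATP exposure 15 min at 22 °C before imaging.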
row,Sequence,switch fluorescence ratio
1,GCATTGGCGG,0.993 ± 0.044
2,GCATTGGGGG,0.995 ± 0.041
3,GCATTTGAAA,0.978 ± 0.011
4,GCATTTGCTG,0.9719 ± 0.0044
5,GCATTTGGCC,0.999 ± 0.012
6,GCATTTTCTG,1.02 ± 0.026
7,GCCAAAACCT,2 ± 0.76
8,GCCAAATTTT,0.955 ± 0.035
9,GCCAACCACT,1.03 ± 0.025
10,GCCAATACCA,1.22 ± 0.013
11,GCCAATAGTT,1.046 ± 0.0073
12,GCCAATGGTT,1.08 ± 0.16
13,GCCAATGTGG,1 ± 0.051
14,GCCACAGTCG,1.01 ± 0.022
15,GCCACATTTT,0.945 ± 0.01
16,GCCACCGTTT,1.06 ± 0.021
17,GCCAGCAGCT,0.967 ± 0.014
18,GCCAGCCGTT,1.014 ± 0.0038
19,GCCAGGGCTG,1 ± 0.024
20,GCCAGGGCTT,1.03 ± 0.036
21,GCCAGTATGT,1.08 ± 0.086
22,GCCATCACGC,0.9836 ± 0.006
23,GCCATCATGC,0.97 ± 0.0073
24,GCCATCGTCG,1.01 ± 0.044
25,GCCATGCGTC,1.01 ± 0.026

row,Sequence,switch fluorescence ratio
1,GCCATGGGCA,1.002 ± 0.0053
2,GCCATGTTTT,0.9646 ± 0.008
3,GCCATTAAGA,1.01 ± 0.011
4,GCCATTCATC,1.02 ± 0.017
5,GCCCAAGAGT,1.04 ± 0.02
6,GCCCCACCTG,1.05 ± 0.029
7,GCCCCAGGGG,4.81 ± 0.36
8,GCCCGAGCAG,1.22 ± 0.062
9,GCCCGCTTCG,1.03 ± 0.024
10,GCCCGGAGCG,1.68 ± 0.13
11,GCCCGTTTCG,0.9989 ± 0.0082
12,GCCCTCCTGC,1.16 ± 0.078
13,GCCCTCTCGA,1.018 ± 0.0079
14,GCCCTGGGGA,2.74 ± 2.4
15,GCCGAAAGGA,1.04 ± 0.039
16,GCCGAAATGT,1.06 ± 0.097
17,GCCGCAGACA,1.39 ± 0.1
18,GCCGCAGGGG,2.61 ± 1.3
19,GCCGCATTTG,1.147 ± 0.011
20,GCCGCCTTTT,1.023 ± 0.0016
21,GCCGCGGGAG,1.096 ± 0.0063
22,GCCGCTTGCA,0.9973 ± 0.0053
23,GCCGGAAAAC,2.35 ± 0.2
24,GCCGGACTTT,1.01 ± 0.012
25,GCCGGAGGGG,1.26 ± 0.39

row,Sequence,switch fluorescence ratio
1,GCCGGCGCAC,1.026 ± 0.0057
2,GCCGGCGTCG,1.03 ± 0.035
3,GCCGGCTTCT,1.02 ± 0.016
4,GCCGGGATAG,1.23 ± 0.35
5,GCCGGGGTCG,1.02 ± 0.037
6,GCCGGGGTGC,1.06 ± 0.028
7,GCCGGGGTTG,1 ± 0.021
8,GCCGGGTATG,1.02 ± 0.022
9,GCCGTACCTG,1.041 ± 0.00042
10,GCCGTACTCT,1.1 ± 0.1
11,GCCGTAGACC,0.9994 ± 0.0092
12,GCCGTAGGGC,0.985 ± 0.011
13,GCCGTTCTTA,1.05 ± 0.037
14,GCCTAATATG,0.9793 ± 0.0083
15,GCCTACAGGT,1.03 ± 0.019
16,GCCTATAACT,1.016 ± 0.0077
17,GCCTATATTT,0.994 ± 0.017
18,GCCTCCTTTT,1.05 ± 0.019
19,GCCTCGTTGG,0.98 ± 0.012
20,GCCTGATGCG,0.997 ± 0.055
21,GCCTGCTGGA,1.002 ± 0.0023
22,GCCTGGAAAT,1 ± 0.021
23,GCCTGGAGTA,1.03 ± 0.065
24,GCCTGGGACC,0.996 ± 0.022
25,GCCTGGGGGG,1.02 ± 0.042

row,Sequence,switch fluorescence ratio
1,GCCTGGTCAG,0.979 ± 0.013
2,GCCTGTAAGT,0.989 ± 0.032
3,GCCTGTACTT,0.9883 ± 0.0046
4,GCCTGTTTGG,1.014 ± 0.01
5,GCCTTACAGT,0.985 ± 0.015
6,GCCTTACCTG,1.05 ± 0.012
7,GCCTTACGTC,1.05 ± 0.052
8,GCCTTGAGGA,0.997 ± 0.018
9,GCCTTGATGT,1.01 ± 0.032
10,GCGAAAAAGC,0.978 ± 0.046
11,GCGAAAACGC,1.04 ± 0.039
12,GCGAAAGTTT,1.01 ± 0.013
13,GCGAACTTGG,0.977 ± 0.016
14,GCGAAGACAA,1.04 ± 0.048
15,GCGAATCGCT,0.9675 ± 0.0058
16,GCGAATTGGA,1.028 ± 0.0019
17,GCGACAAGCT,0.997 ± 0.015
18,GCGACAGATG,1.01 ± 0.027
19,GCGACAGGGT,1.023 ± 0.0055
20,GCGACCATCC,1.8 ± 0.08
21,GCGAGAACTA,0.967 ± 0.024
22,GCGAGAAGAG,1.003 ± 0.0092
23,GCGAGATCCG,1.01 ± 0.011
24,GCGAGGACAT,1.04 ± 0.012
25,GCGAGGGGCG,1 ± 0.062
